Data published in US20130337438A1 (JAPAN HEALTH SCIENCES FOUNDATION, published 2013).

Tests used:
HPV16 L1/L2-capsid = target: T1, HPV16 L1/L2-capsid (human papillomavirus type 16, UniProt P03107 1-473; P03101 1-505); assay: hybridoma screening ELISA on HPV16 L1/L2-capsid
T1 construct: Capsid of co-expressed L1 and L2; It was made in 293FT cells (Test Method 2) or in Sf9 insect cells with baculovirus (Test Method 3); The pseudovirus of Test Method 1 is the same capsid carrying a SEAP plasmid; also called L1/L2-capsid of type 16; HPV16 pseudovirus (PsV)
T1 sequence 1: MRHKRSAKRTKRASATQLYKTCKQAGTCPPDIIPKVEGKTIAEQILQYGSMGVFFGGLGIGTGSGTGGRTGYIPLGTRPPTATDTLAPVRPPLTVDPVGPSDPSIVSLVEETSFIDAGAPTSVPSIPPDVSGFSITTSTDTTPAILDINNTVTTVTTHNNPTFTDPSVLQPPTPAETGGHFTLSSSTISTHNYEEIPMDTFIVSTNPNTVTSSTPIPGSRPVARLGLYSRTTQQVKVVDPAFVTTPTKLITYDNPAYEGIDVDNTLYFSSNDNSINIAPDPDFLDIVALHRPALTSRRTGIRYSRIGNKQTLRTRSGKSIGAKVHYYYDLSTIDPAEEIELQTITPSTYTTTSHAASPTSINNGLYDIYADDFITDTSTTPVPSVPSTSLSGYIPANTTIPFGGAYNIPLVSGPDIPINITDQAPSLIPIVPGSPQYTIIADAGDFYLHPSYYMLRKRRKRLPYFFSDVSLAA
T1 sequence 2: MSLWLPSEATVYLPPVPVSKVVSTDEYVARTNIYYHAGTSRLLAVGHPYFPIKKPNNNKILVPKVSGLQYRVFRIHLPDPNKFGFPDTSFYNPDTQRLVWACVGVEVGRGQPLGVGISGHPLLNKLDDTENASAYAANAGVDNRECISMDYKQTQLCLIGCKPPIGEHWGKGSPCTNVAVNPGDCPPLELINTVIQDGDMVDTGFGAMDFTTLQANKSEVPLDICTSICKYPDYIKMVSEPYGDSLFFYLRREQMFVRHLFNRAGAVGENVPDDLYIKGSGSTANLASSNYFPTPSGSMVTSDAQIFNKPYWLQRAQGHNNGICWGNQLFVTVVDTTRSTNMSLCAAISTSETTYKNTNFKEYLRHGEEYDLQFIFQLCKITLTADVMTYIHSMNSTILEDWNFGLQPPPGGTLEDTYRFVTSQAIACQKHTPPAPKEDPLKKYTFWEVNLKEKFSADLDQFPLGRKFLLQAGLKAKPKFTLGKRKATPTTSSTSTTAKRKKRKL

[1] = target: T2, P56/75 (amino acids 56-75 of HPV16 L2 protein) (human papillomavirus type 16, conjugated with keyhole limpet hemocyanin (KLH) via cysteine); assay: affinity purification on KLH-P56/75 sepharose
T2 construct: Synthetic peptide; It was conjugated with KLH via an added cysteine (KLH-P56/75); also called KLH-P56/75; L2 peptide (56-75)
T2 peptide: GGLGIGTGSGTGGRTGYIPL

HPV31 L1/L2-capsid = target: T3, HPV31 L1/L2-capsid (human papillomavirus type 31, UniProt P17389 1-466; P17388 1-504); assay: ELISA on immobilized L1/L2-capsid, purified antibody 250 ng/well
T3 construct: Capsid of co-expressed L1 and L2 from 293FT cells; The pseudovirus is the same capsid with a reporter plasmid; also called L1/L2-capsid of type 31; HPV31 pseudovirus
T3 sequence 1: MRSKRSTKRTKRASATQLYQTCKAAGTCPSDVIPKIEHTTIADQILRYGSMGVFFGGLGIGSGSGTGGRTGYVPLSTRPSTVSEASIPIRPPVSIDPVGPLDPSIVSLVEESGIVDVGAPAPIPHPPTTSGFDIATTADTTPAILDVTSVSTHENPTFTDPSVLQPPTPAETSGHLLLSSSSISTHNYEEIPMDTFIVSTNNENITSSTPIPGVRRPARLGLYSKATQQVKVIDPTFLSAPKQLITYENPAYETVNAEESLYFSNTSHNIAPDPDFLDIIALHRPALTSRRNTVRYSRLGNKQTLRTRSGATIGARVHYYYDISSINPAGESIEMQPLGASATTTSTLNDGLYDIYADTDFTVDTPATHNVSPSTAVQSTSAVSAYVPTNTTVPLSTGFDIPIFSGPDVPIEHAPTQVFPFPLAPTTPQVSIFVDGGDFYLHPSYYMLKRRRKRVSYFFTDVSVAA
T3 sequence 2: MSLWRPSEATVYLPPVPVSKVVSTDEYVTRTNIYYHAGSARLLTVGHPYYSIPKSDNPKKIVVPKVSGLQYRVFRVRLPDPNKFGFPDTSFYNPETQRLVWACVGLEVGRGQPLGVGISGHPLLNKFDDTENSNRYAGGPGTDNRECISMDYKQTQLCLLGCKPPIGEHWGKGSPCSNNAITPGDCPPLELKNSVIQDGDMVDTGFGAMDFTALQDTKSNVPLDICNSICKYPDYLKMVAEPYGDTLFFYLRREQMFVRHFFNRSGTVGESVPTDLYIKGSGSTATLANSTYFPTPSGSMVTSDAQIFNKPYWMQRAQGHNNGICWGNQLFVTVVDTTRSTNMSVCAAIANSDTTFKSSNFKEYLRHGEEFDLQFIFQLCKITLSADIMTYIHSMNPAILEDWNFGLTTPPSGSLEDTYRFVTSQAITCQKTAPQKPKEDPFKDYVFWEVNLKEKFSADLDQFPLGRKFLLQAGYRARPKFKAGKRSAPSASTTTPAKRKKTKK

Measured: binding result

B1: monoclonal antibody 13B (antibody, V domains shown)
VH: DVQLQESGPGLVKPSQSLSLSCTVTGYSITSDSAWNWIRQFPGNKLEWMGYITFSGSTNYNPSLKSRLSITRDTSKNQFFLQLNSVTTEDTATYYCTGPFLDYWGQGTTLTVSS
VL: DVVMTQTPLSLPVSLGDQATISCRSSLSLVLSNRITYLQWYLQKPGQSPKLLIYKVSNRFSGVPDRFSGSGSGTDFTLKISRVEAEDLGVYFCSQSSHFPWTFGGGTKLEIKR
notes: Used as mouse ascites or as antibody purified from ascites; also called Mouse-Mouse hybridoma 13B (FERM BP-11304)
binds: HPV16 L1/L2-capsid | [1] | HPV31 L1/L2-capsid

B2: monoclonal antibody 24B (antibody, V domains shown)
VH: EVQLQQSGTVLARPGASVKMSCKASVYSFPSNWMHWVKQRPGQGLEWIGAIYPGTGATRYNQKFKDKAKLTAVTSADTAYMELSSLTDEDSAVYYCTGYSLYWGQGTILTVSS
VL: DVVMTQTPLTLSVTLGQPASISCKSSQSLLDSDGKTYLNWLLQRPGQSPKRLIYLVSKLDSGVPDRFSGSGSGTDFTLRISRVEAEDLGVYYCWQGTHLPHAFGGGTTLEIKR
notes: Used as mouse ascites or as antibody purified from ascites; also called Mouse-Mouse hybridoma 24B (FERM BP-11305)
binds: HPV16 L1/L2-capsid | [1] | HPV31 L1/L2-capsid
